Results on two molecules are retold here after US20240417475A1 (AFFIMED, published 2024).

The target in assay [1] is T1, human CD16A (158F) expressed on CHO cells (cAg_34) (human, UniProt P08637 17-254).
T1 construct: also called huCD16A-transfected CHO cells
The experiment in a line: flow cytometry on huCD16A-transfected CHO cells (cAg_34), one-site fit of MFI, mean of 3. The procedure:
(§1) To analyze binding of different antibody constructs to CHO cells transfected with human CD16A (cAg_34), relative to CD16 expression by flow cytometry, 1-2×10⁵ were resuspended in 100 μL FACS buffer (PBS (Invitrogen, cat.: 14190-169) containing 2% heat-inactivated FCS (Invitrogen, cat.: 10270-106), and 0.1% sodium azide (Roth, Karlsruhe, Germany, cat.: A1430.0100)) in round-bottom 96-well microtiter plates. After washing in FACS buffer, cells were incubated in 50 μL FACS buffer without antibodies or with titrated antibodies starting at a concentration of 100 μg/mL followed by ten 5-fold serial dilutions for 30 min on ice in the dark. […] After washing, binding was measured by flow cytometry and mean fluorescence intensities (MFI) of cell samples were calculated and corrected for background staining using control cells stained with secondary antibodies only.
(§2) Equilibrium dissociation constants (KD) of antibody binding were calculated by plotting MFI values and fitting a non-linear regression model for one-site binding to hyperbolic dose-response curves using GraphPad Prism.
Background: In flow cytometry, cells or beads pass a laser one at a time.

Assay [2] has as its target T1, human CD16A (158F) expressed on CHO …. The experiment in a line: flow cytometry on huCD16A-transfected CHO cells (cAg_34), one-site fit of MFI, experiment 1. The procedure: as §1, §2
The target is the same in assay [3]. The experiment in a line: flow cytometry on huCD16A-transfected CHO cells (cAg_34), one-site fit of MFI, experiment 2. The procedure:
as §1, §2

Assay [4] has the same target. The experiment in a line: flow cytometry on huCD16A-transfected CHO cells (cAg_34), one-site fit of MFI, experiment 3. The procedure: as §1, §2
The target is the same in assay [5]. The experiment in a line: flow cytometry on huCD16A-transfected CHO cells, on ice, APC goat anti-human IgG detection. The procedure:
as §1

The target in assay [6] is CD16A on in vitro differentiated human macrophages (human, UniProt P08637 17-254). The experiment in a line: cell-based or functional assay.
CD16A on in vitro differentiated human macrophages, sequence (P08637 17-254 limits assumed): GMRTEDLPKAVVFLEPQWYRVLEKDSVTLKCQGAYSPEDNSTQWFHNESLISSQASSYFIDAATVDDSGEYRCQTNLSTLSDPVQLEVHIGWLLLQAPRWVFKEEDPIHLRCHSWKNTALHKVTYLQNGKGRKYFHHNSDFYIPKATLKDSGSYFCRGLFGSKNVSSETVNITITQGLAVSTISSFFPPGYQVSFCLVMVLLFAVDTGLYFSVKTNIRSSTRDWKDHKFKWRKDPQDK
The target of assay [7] is T2, human FOLR1 endogenously expressed on tumor cell lines (human, UniProt P15328 25-234).
T2 construct: whole, on cells; also called FOLR1-positive tumor cell lines; FOLR1+ target cells
T2 sequence (P15328 25-234): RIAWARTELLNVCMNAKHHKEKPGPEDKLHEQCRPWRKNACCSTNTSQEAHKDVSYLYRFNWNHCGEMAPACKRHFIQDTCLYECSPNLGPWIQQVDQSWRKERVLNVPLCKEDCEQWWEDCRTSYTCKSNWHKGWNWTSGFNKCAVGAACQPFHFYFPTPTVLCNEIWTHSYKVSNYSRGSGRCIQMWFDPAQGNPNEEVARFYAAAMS
The experiment in a line: flow cytometry on HCC-827 cells, 37 C, one-site fit of MFI, mean. The procedure:
(§3) Cells were collected and centrifuged at 400×g, 5 min, 4° C. Cell pellets were resuspended in FACS buffer (PBS (Invitrogen, cat.: 392-0434) containing 2% h.i. FCS (Invitrogen, cat.: 10500-064), and 0.1% sodium azide (Sigma, cat.: S8032)) at 1-5×10⁶ cells/mL. 100 μL/well of the cell suspension were transferred into U-shaped, 96-well micro plates (0.1-0.5×10⁶ cells per well), cells were pelleted at 400×g, 5 min, 4° C., and resuspended in 100 μL/well of serial dilutions of the indicated antibodies in FACS buffer. After 40-50 min incubation at 37° C., cells were washed 3-times with ice-cold FACS buffer. […] After the final incubation step, cells were washed 2-times with ice-cold FACS buffer, and the cell pellet was resuspended in 100 μL FACS buffer. Fluorescence intensities of >1×10⁴ viable cells were analyzed by flow cytometry and the median fluorescence intensity (MFI) was determined for each sample.
(§4) Equilibrium dissociation constants (KD) of antibody binding, mean and standard deviation (SD) were calculated by plotting MFI values and fitting a non-linear regression model for one-site binding to hyperbolic dose-response curves using GraphPad Prism for Windows (v9; GraphPad Software; La Jolla California USA).
(§5) Specific antibody binding capacity (SABC) as a marker for FOLR1 expression level on cells was determined on all tumor cell lines using QIFIKIT.

For assay [8], the target named is T2, human FOLR1 endogenously expressed on …. The experiment in a line: flow cytometry on IGROV-1 cells, 37 C, one-site fit of MFI, mean. The procedure: as §3, §4, §5
The target is the same in assay [9]. The experiment in a line: flow cytometry on OVCAR-3 cells, 37 C, one-site fit of MFI, mean. The procedure:
as §3, §4, §5

The target is the same in assay [10]. The experiment in a line: flow cytometry on NCI-H2110 cells, 37 C, one-site fit of MFI, mean. The procedure:
as §3, §4, §5

The target of assay [11] is T3, human FOLR1-mFc_Avi-tag (sAg_303) (human, UniProt P15328 25-234, limits assumed).
T3 construct: also called human FOLR1 (sAg_303); recombinant human FOLR1
T3 sequence (P15328 25-234 limits assumed): as the sequence (P15328 25-234) above
The experiment in a line: ELISA, plate coated with human FOLR1-mFc_Avi-tag (sAg_303), one-site fit, mean of 3. The procedure:
(§6) 96 well ELISA plates (F96 Maxisorp Immuno Plate, Nunc, cat: 442404) were coated overnight at 4° C. with 50 μL/well of 10 μg/mL human FOLR1-mFc_Avi-tag in DPBS. After overnight incubation plates were washed three times with PBST and blocked with Candor Blocking solution for 2 h at RT under mild agitation. […] After incubation with the secondary antibodies, the plate was washed five times with PBST and one time with PBS. Chromogenic substrate (1:1 mixture of TMB:TMBB, SeraCare cat: 5120-0048 and 5120-0037) was added and the reaction was stopped by addition of an equal volume of 0.5 M H₂SO₄ after sufficient color development. Absorbance at 450 nm was measured in an ELISA plate reader (Sunrise Absorbance Reader 901000833, Schoeller Instruments). The absorbance values were corrected by subtracting the background of the respective secondary antibody and fitted with a one site binding function (hyperbola) using GraphPad Prism (version 9.3.1. GraphPad Software, La Jolla California USA). KD is the concentration of ligand required to reach half-maximal binding.
(ELISA stands for enzyme-linked immunosorbent assay.)

In assay [12] the target is T3, human FOLR1-mFc_Avi-tag (sAg_303). The experiment in a line: ELISA, plate coated with human FOLR1-mFc_Avi-tag, anti-human Fab-HRP detection, A450. The procedure: as §6
For assay [13], the target named is T2, human FOLR1 endogenously expressed on …. The experiment in a line: flow cytometry on IGROV-1 cells (FOLR1 high) at 37 °C, FITC anti-human IgG detection. The procedure: as §3
The target is the same in assay [14]. The experiment in a line: flow cytometry on OVCAR-3 cells (FOLR1 medium) at 37 °C, FITC anti-human IgG detection. The procedure: as §3
Assay [15] addresses T4, cynomolgus CD16 expressed on CHO cells (cAg_36) (cynomolgus, UniProt Q8SPW2 17-254).
T4 construct: whole, on cells; also called cyCD16
The experiment in a line: flow cytometry on cyCD16-transfected CHO cells (cAg_36), on ice, FITC goat anti-human IgG detection. The procedure:
(§7) After washing in FACS buffer, cells were incubated in 50 μL FACS buffer without antibodies or with titrated antibodies starting at a concentration of 1000 nM followed by elven 3-fold serial dilutions for 40-50 min on ice in the dark. […] After washing, binding was measured by flow cytometry and mean fluorescence intensities (MFI) of cell samples were calculated and corrected for background staining using control cells stained with secondary antibodies only.

The target of assay [16] is T1, human CD16A (158F) expressed on CHO …. The experiment in a line: flow cytometry on huCD16A (158F)-transfected CHO cells (cAg_34), on ice, FITC goat anti-human IgG detection. The procedure: as §7
Assay [17] has as its target T5, human CD16A (158V) expressed on CHO cells (cAg_35) (human, UniProt P08637 17-254).
T5 construct: also called huCD16A (158V)
The experiment in a line: flow cytometry on huCD16A (158V)-transfected CHO cells (printed sAg_35), on ice, FITC goat anti-human IgG detection. The procedure:
as §7

In assay [18] the target is CD16A endogenously expressed on primary human NK cells (human, UniProt P08637 17-254). The experiment in a line: flow cytometry on primary human NK cells at 37 °C, biotinylated antibody, streptavidin-FITC, without polyclonal human IgG. The procedure:
Frozen NK cells were thawed, and viability was determined with trypan blue (Sigma-Aldrich, cat.: T8154). Cells have been centrifuged at 400×g, 5 min, 4° C. Cell pellets were resuspended in FACS buffer PBS (Invitrogen, cat.: 392-0434) containing 2% h.i. FCS (Invitrogen, cat.: 10500-064), and 0.1% sodium azide (Sigma, cat.: S8032) at 2×10⁶ cells/mL. 100 μL/well of the cell suspension were transferred into U-shaped 96 well plates, cells were pelleted at 400×g, 5 min. 4° C., and resuspended in 50 μL/well of diluted antibody constructs. […] After 40-50 minutes' incubation at 37° C., cells were washed 3-times with ice-cold FACS buffer. […] After the final incubation step, cells were washed 2-times with ice-cold FACS buffer, and the cell pellet was resuspended in 50 μL FACS buffer. Fluorescence intensity of >1×10⁴ viable cells was analyzed by flow cytometry and the median fluorescence intensity (MFI) was determined for each sample.

T1 sequence (P08637 17-254 limits assumed): as the sequence (P08637 17-254 limits assumed) above
T5 sequence (P08637 17-254 F176V limits assumed): as the sequence (P08637 17-254 limits assumed) above, with F160V counted along it
T4 sequence (Q8SPW2 17-254): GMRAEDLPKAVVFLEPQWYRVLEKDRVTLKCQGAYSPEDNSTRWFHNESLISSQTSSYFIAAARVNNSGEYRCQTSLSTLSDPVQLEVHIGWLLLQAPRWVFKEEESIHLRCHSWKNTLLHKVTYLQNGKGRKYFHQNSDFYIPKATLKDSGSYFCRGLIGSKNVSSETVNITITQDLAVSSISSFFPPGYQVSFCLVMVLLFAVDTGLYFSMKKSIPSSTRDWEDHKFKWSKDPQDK
CD16A endogenously expressed on primary human NK cells, sequence (P08637 17-254 limits assumed): as the sequence (P08637 17-254 limits assumed) above

B1: scFv-IgAb_268 (CD123-1×CD16a1) (bispecific antibody)
heavy: QVQLQQSGAEVKKPGASVKVSCKASGYTFTDYYMKWVKQSHGKSLEWMGDIIPSNGATFYNQKFKGKATLTVDRSTSTAYMELSSLRSEDTAVYYCARSHLLRASWFAYWGQGTLVTVSSASTKGPSVFPLAPSSKSTSGGTAALGCLVKDYFPEPVTVSWNSGALTSGVHTFPAVLQSSGLYSLSSVVTVPSSSLGTQTYICNVNHKPSNTKVDKKVEPKSCDKTHTCPPCPAPEFEGGPSVFLFPPKPKDTLMISRTPEVTCVVVAVSHEDPEVKFNWYVDGVEVHNAKTKPREEQYNSTYRVVSVLTVLHQDWLNGKEYKCKVSNKALPAPIEKTISKAKGQPREPQVYTLPPSREEMTKNQVSLTCLVKGFYPSDIAVEWESNGQPENNYKTTPPVLDSDGSFFLYSKLTVDKSRWQQGNVFSCSVMHEALHNHYTQKSLSLSPGGGGGSGGGGSGGGGSGGGGSGGGGSGGGGSSYELTQPLSVSVALGQTARITCGGNNIGSKSVHWYQQKPGQAPVLVIYQDKKRPSGIPERFSGSNSGNTATLTISRAQAGDEADYYCQVWDDYIVLFGCGTKLTVLGGSGGSGGSGGSGGSGGSGGSQVQLVQSGAEVKKPGASVKVSCKASGYTFTNYYMQWVRQAPGQCLEWMGIINPSGGVTSYAQKFQGRVTMTRDTSTSTVYMELSSLRSEDTAVYYCARGSAYYYDFADYWGQGTLVTVSS
light: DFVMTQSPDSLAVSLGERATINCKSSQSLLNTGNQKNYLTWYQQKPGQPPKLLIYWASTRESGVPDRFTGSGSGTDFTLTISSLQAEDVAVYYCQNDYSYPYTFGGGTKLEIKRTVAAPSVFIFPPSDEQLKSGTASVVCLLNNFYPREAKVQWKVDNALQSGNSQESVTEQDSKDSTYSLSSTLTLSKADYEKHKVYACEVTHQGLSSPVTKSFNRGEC
notes: also called AFM28; CD123×CD16A scFv-IgAb_268
For the molecule B1, the Kd – broadly, the concentration at which binding is half-saturated – was 16.3 nM in assay [1], 17.7 nM in [2], 7.8 nM in assay [3] and 23.5 nM in assay [4]. Besides, the 50% effective concentration (EC50 (read off the curve)) (as a rule, the concentration needed to bring the measured effect to its halfway point) in assay [5] was roughly 8 nM.

B2: scFv-IgAb_162 (FOLR1×RSV) (bispecific antibody)
heavy: EVQLVESGGGVVQPGRSLRLSCSASGFTFSGYGLSWVRQAPGKGLEWVAMISSGGSYTYYADSVKGRFAISRDNAKNTLFLQMDSLRPEDTGVYFCARHGDDPAWFAYWGQGTPVTVSSASTKGPSVFPLAPSSKSTSGGTAALGCLVKDYFPEPVTVSWNSGALTSGVHTFPAVLQSSGLYSLSSVVTVPSSSLGTQTYICNVNHKPSNTKVDKKVEPKSCDKTHTCPPCPAPEFEGGPSVFLFPPKPKDTLMISRTPEVTCVVVAVSHEDPEVKFNWYVDGVEVHNAKTKPREEQYNSTYRVVSVLTVLHQDWLNGKEYKCKVSNKALPAPIEKTISKAKGQPREPQVYTLPPSREEMTKNQVSLTCLVKGFYPSDIAVEWESNGQPENNYKTTPPVLDSDGSFFLYSKLTVDKSRWQQGNVFSCSVMHEALHNHYTQKSLSLSPGGGGGSGGGGSQVTLRESGPALVKPTQTLTLTCTFSGFSLSTAGMSVGWIRQPPGKALEWLADIWWDDKKHYNPSLKDRLTISKDTSKNQVVLKVTNMDPADTATYYCARDMIFNFYFDVWGQGTTVTVSSGGSGGSGGSGGSGGSGGSDIQMTQSPSTLSASVGDRVTITCSASSRVGYMHWYQQKPGKAPKLLIYDTSKLASGVPSRFSGSGSGTEFTLTISSLQPDDFATYYCFQGSGYPFTFGGGTKVEIK
light: DIQLTQSPSSLSASVGDRVTITCSVSSSISSNNLHWYQQKPGKAPKPWIYGTSNLASGVPSRFSGSGSGTDYTFTISSLQPEDIATYYCQQWSSYPYMYTFGQGTKVEIKRTVAAPSVFIFPPSDEQLKSGTASVVCLLNNFYPREAKVQWKVDNALQSGNSQESVTEQDSKDSTYSLSSTLTLSKADYEKHKVYACEVTHQGLSSPVTKSFNRGEC
notes: also called FOLR1/RSV scFv-IgAb_162; FOLR1×RSV(NIST); copies: 2 + 2
For the molecule B2, the “Phagocytosis [%], 4 h ADCP, DK-MG cells” value in assay [6] was 0%. The “Phagocytosis [%], 4 h ADCP, HCC-78 cells” value in [6] was 0%. Further, in assay [6], the “Phagocytosis [%], 4 h ADCP, HeLa cells” value was 0%. Further, the Kd in assay [7] is 3.7 nM; in assay [8] it was 5.2 nM; in assay [9], 2.5 nM; in assay [10], 3 nM; in assay [11], 0.06 nM. In addition, the “EC50 (read off the curve)” value in assay [12] is roughly 0.05 nM; in [13] it was roughly 4 nM; in assay [14], roughly 2 nM. Moreover, the binding result in assay [15] is given as “no binding (tested: 1000 nM)”; in assay [16] it was “no binding (tested: 1000 nM)”; in assay [17] it was “no binding (tested: 1000 nM)”; in assay [18] it was “no binding (tested: about 500 nM)”.
